Values of other authors in patent US20040126825A1, “Methods of screening and using inhibitors of angiogenesis” (Allergan, Inc, priority 2001, published 2004).

Test system: MMP-2
Details: cultured breast carcinoma cells; Deryugina et al. 2001

vitronectin: a specific ligand of αvβ3
activation of MMP-2 (conversion from pro-form to active form): inhibited
